# Assay results reported in US20260184748A1 (University of Pennsylvania, published 2026).
# Where no end group is shown, it is not given here.
# T1: MRGPRX2 (UniProt Q96LB1 1-330)
# T1 sequence (looked up): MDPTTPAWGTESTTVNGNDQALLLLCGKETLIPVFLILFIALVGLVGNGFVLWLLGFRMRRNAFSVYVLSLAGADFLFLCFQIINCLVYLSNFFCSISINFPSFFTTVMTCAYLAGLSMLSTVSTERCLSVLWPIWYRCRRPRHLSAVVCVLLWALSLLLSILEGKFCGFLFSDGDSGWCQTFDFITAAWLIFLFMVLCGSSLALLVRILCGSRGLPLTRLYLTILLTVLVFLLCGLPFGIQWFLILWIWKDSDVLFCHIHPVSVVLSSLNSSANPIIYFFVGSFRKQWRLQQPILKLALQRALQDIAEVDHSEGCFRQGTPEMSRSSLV
# T2: VIPR2 (UniProt P41587 24-438)
# T2 sequence (looked up): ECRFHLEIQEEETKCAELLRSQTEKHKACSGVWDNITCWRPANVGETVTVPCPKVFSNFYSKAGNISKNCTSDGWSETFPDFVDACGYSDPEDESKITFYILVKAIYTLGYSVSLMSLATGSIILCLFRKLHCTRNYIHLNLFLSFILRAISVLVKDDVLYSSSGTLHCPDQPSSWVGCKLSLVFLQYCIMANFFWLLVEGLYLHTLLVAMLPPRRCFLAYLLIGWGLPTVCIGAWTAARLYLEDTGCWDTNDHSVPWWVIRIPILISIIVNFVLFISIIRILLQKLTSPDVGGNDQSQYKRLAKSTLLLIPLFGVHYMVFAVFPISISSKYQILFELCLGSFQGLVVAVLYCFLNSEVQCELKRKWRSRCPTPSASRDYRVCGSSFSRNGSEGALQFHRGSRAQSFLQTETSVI
# T3: CCR4 (UniProt P51679 1-360)
# T3 sequence (looked up): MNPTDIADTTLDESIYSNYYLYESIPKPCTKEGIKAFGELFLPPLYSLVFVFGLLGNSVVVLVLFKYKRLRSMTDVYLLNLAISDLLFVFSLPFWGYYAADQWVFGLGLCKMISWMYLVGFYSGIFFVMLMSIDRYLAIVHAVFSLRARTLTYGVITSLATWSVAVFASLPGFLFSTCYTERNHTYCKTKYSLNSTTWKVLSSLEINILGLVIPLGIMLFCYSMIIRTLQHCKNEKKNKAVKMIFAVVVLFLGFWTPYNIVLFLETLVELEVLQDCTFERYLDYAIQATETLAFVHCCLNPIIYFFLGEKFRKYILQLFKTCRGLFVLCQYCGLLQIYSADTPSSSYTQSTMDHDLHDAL
# T4: ADRA2C (UniProt P18825 1-462)
# T4 sequence (looked up): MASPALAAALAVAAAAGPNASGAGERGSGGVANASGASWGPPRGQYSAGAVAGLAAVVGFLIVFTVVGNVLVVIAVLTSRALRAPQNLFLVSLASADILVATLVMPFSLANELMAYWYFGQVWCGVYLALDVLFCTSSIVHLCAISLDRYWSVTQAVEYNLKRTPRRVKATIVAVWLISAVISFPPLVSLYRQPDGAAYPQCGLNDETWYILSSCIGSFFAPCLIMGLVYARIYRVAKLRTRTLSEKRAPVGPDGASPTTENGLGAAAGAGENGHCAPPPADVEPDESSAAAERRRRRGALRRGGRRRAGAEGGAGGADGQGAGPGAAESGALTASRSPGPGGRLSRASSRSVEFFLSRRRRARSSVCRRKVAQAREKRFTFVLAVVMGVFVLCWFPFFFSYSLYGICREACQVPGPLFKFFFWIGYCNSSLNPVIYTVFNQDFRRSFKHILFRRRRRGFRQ
# T5: GPR119 (UniProt Q8TDV5 1-335)
# T5 sequence (looked up): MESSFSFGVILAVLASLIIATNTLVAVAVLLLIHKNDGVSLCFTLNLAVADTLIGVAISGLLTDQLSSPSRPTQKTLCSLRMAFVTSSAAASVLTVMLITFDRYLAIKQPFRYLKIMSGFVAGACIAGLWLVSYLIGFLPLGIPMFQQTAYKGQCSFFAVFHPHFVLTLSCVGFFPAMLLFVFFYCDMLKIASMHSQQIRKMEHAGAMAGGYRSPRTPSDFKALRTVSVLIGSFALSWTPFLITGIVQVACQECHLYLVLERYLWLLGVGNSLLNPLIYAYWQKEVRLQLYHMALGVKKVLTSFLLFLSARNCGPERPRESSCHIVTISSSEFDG
# T6: HCRTR1 (UniProt O43613 1-425)
# T6 sequence (looked up): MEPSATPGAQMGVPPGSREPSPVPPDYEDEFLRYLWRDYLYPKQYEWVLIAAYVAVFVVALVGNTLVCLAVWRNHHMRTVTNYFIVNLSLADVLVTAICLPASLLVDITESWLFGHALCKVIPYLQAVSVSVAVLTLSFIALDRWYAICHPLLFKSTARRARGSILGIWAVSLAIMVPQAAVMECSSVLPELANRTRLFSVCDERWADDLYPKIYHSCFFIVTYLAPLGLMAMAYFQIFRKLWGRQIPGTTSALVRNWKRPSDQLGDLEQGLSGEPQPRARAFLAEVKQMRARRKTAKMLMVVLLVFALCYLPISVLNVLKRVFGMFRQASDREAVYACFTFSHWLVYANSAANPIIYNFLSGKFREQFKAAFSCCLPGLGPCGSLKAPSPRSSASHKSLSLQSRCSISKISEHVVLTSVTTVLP
# Assays:
# Assay in all cases: cell-based or functional assay
# MRGPRX2 = molecular target: T1, MRGPRX2
# OPRD1 = OPRD1 (UniProt P41143 1-372)
# PTGER4 = PTGER4 (UniProt P35408 1-488)
# TSHR(L) = TSHR(L) (UniProt P16473 21-764, limits assumed)
# VIPR2 = molecular target: T2, VIPR2
# CCR4 = molecular target: T3, CCR4
# ADRA2C = molecular target: T4, ADRA2C
# GPR119 = molecular target: T5, GPR119
# HCRTR1 = molecular target: T6, HCRTR1
# Chain of OPRD1 (P41143 whole entry): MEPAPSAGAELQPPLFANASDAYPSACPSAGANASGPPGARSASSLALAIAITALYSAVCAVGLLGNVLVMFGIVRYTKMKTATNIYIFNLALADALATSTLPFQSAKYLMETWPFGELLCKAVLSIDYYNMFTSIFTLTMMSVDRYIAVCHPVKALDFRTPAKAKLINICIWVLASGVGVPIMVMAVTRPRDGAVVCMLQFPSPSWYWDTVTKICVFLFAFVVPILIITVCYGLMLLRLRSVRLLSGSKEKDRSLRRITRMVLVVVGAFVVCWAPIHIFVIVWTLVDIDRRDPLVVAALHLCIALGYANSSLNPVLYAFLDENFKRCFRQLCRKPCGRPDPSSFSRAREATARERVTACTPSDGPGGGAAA
# Chain of PTGER4 (P35408 whole entry): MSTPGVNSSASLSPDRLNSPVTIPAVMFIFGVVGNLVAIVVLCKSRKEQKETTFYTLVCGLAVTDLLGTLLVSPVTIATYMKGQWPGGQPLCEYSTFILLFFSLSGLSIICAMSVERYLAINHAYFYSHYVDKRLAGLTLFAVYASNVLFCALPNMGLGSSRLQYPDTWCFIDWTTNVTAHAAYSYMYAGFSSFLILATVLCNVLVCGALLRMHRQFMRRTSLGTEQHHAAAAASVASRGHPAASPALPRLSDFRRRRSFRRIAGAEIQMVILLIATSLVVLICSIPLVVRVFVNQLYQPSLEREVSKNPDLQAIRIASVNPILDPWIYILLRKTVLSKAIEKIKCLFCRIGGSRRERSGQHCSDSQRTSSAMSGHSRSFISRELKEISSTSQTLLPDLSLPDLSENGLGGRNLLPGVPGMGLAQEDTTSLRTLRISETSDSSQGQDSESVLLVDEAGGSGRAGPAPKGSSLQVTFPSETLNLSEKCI
binder,measurement,setting,value
"QATVGDVNTDRPGLLDLK (also: synthesised on Rink amide resin, C-terminal amide not given here outright) [octadecaneuropeptide (ODN)]","% Activity, arrestin, antagonist mode, 2.5 uM",MRGPRX2,-23.5%
same,"% Activity, arrestin, antagonist mode, 2.5 uM",OPRD1,10%
same,"% Activity, arrestin, antagonist mode, 2.5 uM",PTGER4,-15.1%
same,"% Activity, arrestin, antagonist mode, 2.5 uM",TSHR(L),-19.1%
same,"% Activity, arrestin, antagonist mode, 2.5 uM",VIPR2,-6.7%
same,"% Activity, arrestin, antagonist mode, 2.5 uM",CCR4,1.3%
same,"% Activity, arrestin, antagonist mode, 2.5 uM",ADRA2C,-26.4%
same,"% Activity, arrestin, antagonist mode, 2.5 uM",GPR119,-1%
same,"% Activity, arrestin, antagonist mode, 2.5 uM",HCRTR1,-1.7%
